The results in this text go back to US20220064276A1 (SCHOLAR ROCK, published 2022).

The chains are these.
B1: SR-AB46-HuFab (Fab, V domains shown)
VH: QVQLVESGGGVVQPGRSLRLSCAASGFTFRSYVMHWVRQAPGKGLEWVAVISHEGSGKYYADSVKGRFTISRDNSKNTLYLQMNSLRAEDTAVYYCARPRIAARRGGFGSWGQGTLVTVSS
VL: NFMLTQPHSVSESPGKTVTISCTRSSGNIDYNYVQWYQQRPGSSPTTVIYEDNVRPSGVPDRFSGSIDSSSNSASLTISGLKTEDEADYYCQSYDSDNQRVVFGGGTKLTVL
notes: Human Fab; also called SR-AB46 Fab
B2: SR-AB48-HuFab (Fab, V domains shown)
VH: QVQLVESGGGVVQPGRSLRLSCAASGFTFRSYVMHWVRQAPGKGLEWVAVISHEGSGKYYADSVKGRFTISRDNSKNTLYLQMNSLRAEDTAVYYCARPRIAARRGGFGSWGQGTLVTVSS
VL: NFMLTQPHSVSESPGKTVTISCTRSSGNIDYNYVQWYQQRPGSSPTTVIYEDNVRPSGVPDRFSGSIDSSSNSASLTISGLKTEDEADYYCQSYDYDTQGVVFGGGTKLTVL
notes: Human Fab; also called SR-AB48 Fab
B3: SR-AB53-HuFab (Fab, V domains shown)
VH: QVQLVESGGGVVQPGRSLRLSCAASGFTFRSYVMHWVRQAPGKGLEWVAVISHEGSGKYYADSVKGRFTISRDNSKNTLYLQMNSLRAEDTAVYYCARPRIAARRGGFGTWGQGTLVTVSS
VL: NFMLTQPHSVSESPGKTVTISCTRSSGNIDYNYVQWYQQRPGSSPTTVIYEDNVRPSGVPDRFSGSIDSSSNSASLTISGLKTEDEADYYCQGYDWDTQGVVFGGGTKLTVL
notes: Human Fab; also called SR-AB53 Fab
B4: SR-AB52-HuFab (Fab, V domains shown)
VH: QVQLVESGGGVVQPGRSLRLSCAASGFTFRSYVMHWVRQAPGKGLEWVAVISHEGSGKYYADSVKGRFTISRDNSKNTLYLQMNSLRAEDTAVYYCARPRIAARRGGFGTWGQGTLVTVSS
VL: NFMLTQPHSVSESPGKTVTISCTRSSGNIDYNYVQWYQQRPGSSPTTVIYEDNVRPSGVPDRFSGSIDSSSNSASLTISGLKTEDEADYYCQSYDYDTQGVVFGGGTKLTVL
notes: Human Fab; also called SR-AB52 Fab
B5: SR-AB60-HuFab (Fab, V domains shown)
VH: QVQLVESGGGVVQPGRSLRLSCAASGFTFRSYVMHWVRQAPGKGLEWVAVISHEGSGKYYADSVKGRFTISRDNSKNTLYLQMNSLRAEDTAVYYCALPRIAARRGGFGTWGQGTLVTVSS
VL: NFMLTQPHSVSESPGKTVTISCTRSSGNIDYNYVQWYQQRPGSSPTTVIYEDNVRPSGVPDRFSGSIDSSSNSASLTISGLKTEDEADYYCQSYDYDTQGVVFGGGTKLTVL
notes: Human Fab; also called SR-AB60 Fab
B6: SR-AB51-HuFab (Fab, V domains shown)
VH: QVQLVESGGGVVQPGRSLRLSCAASGFTFRSYVMHWVRQAPGKGLEWVAVISHEGSGKYYADSVKGRFTISRDNSKNTLYLQMNSLRAEDTAVYYCARPRIAARRGGFGTWGQGTLVTVSS
VL: NFMLTQPHSVSESPGKTVTISCTRSSGNIDYNYVQWYQQRPGSSPTTVIYEDNVRPSGVPDRFSGSIDSSSNSASLTISGLKTEDEADYYCQSYDYDNQAVVFGGGTKLTVL
notes: Human Fab; also called SR-AB51 Fab
B7: SR-AB59-HuFab (Fab, V domains shown)
VH: QVQLVESGGGVVQPGRSLRLSCAASGFTFRSYVMHWVRQAPGKGLEWVAVISHEGSGKYYADSVKGRFTISRDNSKNTLYLQMNSLRAEDTAVYYCALPRIAARRGGFGTWGQGTLVTVSS
VL: NFMLTQPHSVSESPGKTVTISCTRSSGNIDYNYVQWYQQRPGSSPTTVIYEDNVRPSGVPDRFSGSIDSSSNSASLTISGLKTEDEADYYCQSYDYDNQAVVFGGGTKLTVL
notes: Human Fab; also called SR-AB59 Fab
B8: SR-AB55-HuFab (Fab, V domains shown)
VH: QVQLVESGGGVVQPGRSLRLSCAASGFTFRSYVMHWVRQAPGKGLEWVAVISHEGSGKYYADSVKGRFTISRDNSKNTLYLQMNSLRAEDTAVYYCALPRIAARRGGFGSWGQGTLVTVSS
VL: NFMLTQPHSVSESPGKTVTISCTRSSGNIDYNYVQWYQQRPGSSPTTVIYEDNVRPSGVPDRFSGSIDSSSNSASLTISGLKTEDEADYYCQSYDYDNQAVVFGGGTKLTVL
notes: Human Fab; also called SR-AB55 Fab
B9: SR-AB57-HuFab (Fab, V domains shown)
VH: QVQLVESGGGVVQPGRSLRLSCAASGFTFRSYVMHWVRQAPGKGLEWVAVISHEGSGKYYADSVKGRFTISRDNSKNTLYLQMNSLRAEDTAVYYCALPRIAARRGGFGSWGQGTLVTVSS
VL: NFMLTQPHSVSESPGKTVTISCTRSSGNIDYNYVQWYQQRPGSSPTTVIYEDNVRPSGVPDRFSGSIDSSSNSASLTISGLKTEDEADYYCQGYDWDTQGVVFGGGTKLTVL
notes: Human Fab; also called SR-AB57 Fab
B10: SR-AB54-HuFab (Fab, V domains shown)
VH: QVQLVESGGGVVQPGRSLRLSCAASGFTFRSYVMHWVRQAPGKGLEWVAVISHEGSGKYYADSVKGRFTISRDNSKNTLYLQMNSLRAEDTAVYYCALPRIAARRGGFGSWGQGTLVTVSS
VL: NFMLTQPHSVSESPGKTVTISCTRSSGNIDYNYVQWYQQRPGSSPTTVIYEDNVRPSGVPDRFSGSIDSSSNSASLTISGLKTEDEADYYCQSYDSDNQRVVFGGGTKLTVL
notes: Human Fab; also called SR-AB54 Fab
B11: SR-AB58-HuFab (Fab, V domains shown)
VH: QVQLVESGGGVVQPGRSLRLSCAASGFTFRSYVMHWVRQAPGKGLEWVAVISHEGSGKYYADSVKGRFTISRDNSKNTLYLQMNSLRAEDTAVYYCALPRIAARRGGFGTWGQGTLVTVSS
VL: NFMLTQPHSVSESPGKTVTISCTRSSGNIDYNYVQWYQQRPGSSPTTVIYEDNVRPSGVPDRFSGSIDSSSNSASLTISGLKTEDEADYYCQSYDSDNQRVVFGGGTKLTVL
notes: Human Fab; also called SR-AB58 Fab
B12: SR-AB56-HuFab (Fab, V domains shown)
VH: QVQLVESGGGVVQPGRSLRLSCAASGFTFRSYVMHWVRQAPGKGLEWVAVISHEGSGKYYADSVKGRFTISRDNSKNTLYLQMNSLRAEDTAVYYCALPRIAARRGGFGSWGQGTLVTVSS
VL: NFMLTQPHSVSESPGKTVTISCTRSSGNIDYNYVQWYQQRPGSSPTTVIYEDNVRPSGVPDRFSGSIDSSSNSASLTISGLKTEDEADYYCQSYDYDTQGVVFGGGTKLTVL
notes: Human Fab; also called SR-Ab56 Fab
B13: SR-AB61-HuFab (Fab, V domains shown)
VH: QVQLVESGGGVVQPGRSLRLSCAASGFTFRSYVMHWVRQAPGKGLEWVAVISHEGSGKYYADSVKGRFTISRDNSKNTLYLQMNSLRAEDTAVYYCALPRIAARRGGFGTWGQGTLVTVSS
VL: NFMLTQPHSVSESPGKTVTISCTRSSGNIDYNYVQWYQQRPGSSPTTVIYEDNVRPSGVPDRFSGSIDSSSNSASLTISGLKTEDEADYYCQGYDWDTQGVVFGGGTKLTVL
notes: Human Fab; also called SR-AB61 Fab
B14: SR-AB50-HuFab (Fab, V domains shown)
VH: QVQLVESGGGVVQPGRSLRLSCAASGFTFRSYVMHWVRQAPGKGLEWVAVISHEGSGKYYADSVKGRFTISRDNSKNTLYLQMNSLRAEDTAVYYCARPRIAARRGGFGTWGQGTLVTVSS
VL: NFMLTQPHSVSESPGKTVTISCTRSSGNIDYNYVQWYQQRPGSSPTTVIYEDNVRPSGVPDRFSGSIDSSSNSASLTISGLKTEDEADYYCQSYDSDNQRVVFGGGTKLTVL
notes: Human Fab; also called SR-AB50 Fab

For the assay, the target named is T1, human LTBP1-proTGFβ1 complex (human, UniProt Q14766 347-1721; P01137 30-390).
T1 construct: Large latent complex: one presenting molecule disulfide-linked to a proTGFβ1 dimer; also called Hu LTBP1-proTGFβ1; huLTBP1 proTGFβ1
T1 sequence (Q14766 347-1721 limits assumed, chain 1 of 2): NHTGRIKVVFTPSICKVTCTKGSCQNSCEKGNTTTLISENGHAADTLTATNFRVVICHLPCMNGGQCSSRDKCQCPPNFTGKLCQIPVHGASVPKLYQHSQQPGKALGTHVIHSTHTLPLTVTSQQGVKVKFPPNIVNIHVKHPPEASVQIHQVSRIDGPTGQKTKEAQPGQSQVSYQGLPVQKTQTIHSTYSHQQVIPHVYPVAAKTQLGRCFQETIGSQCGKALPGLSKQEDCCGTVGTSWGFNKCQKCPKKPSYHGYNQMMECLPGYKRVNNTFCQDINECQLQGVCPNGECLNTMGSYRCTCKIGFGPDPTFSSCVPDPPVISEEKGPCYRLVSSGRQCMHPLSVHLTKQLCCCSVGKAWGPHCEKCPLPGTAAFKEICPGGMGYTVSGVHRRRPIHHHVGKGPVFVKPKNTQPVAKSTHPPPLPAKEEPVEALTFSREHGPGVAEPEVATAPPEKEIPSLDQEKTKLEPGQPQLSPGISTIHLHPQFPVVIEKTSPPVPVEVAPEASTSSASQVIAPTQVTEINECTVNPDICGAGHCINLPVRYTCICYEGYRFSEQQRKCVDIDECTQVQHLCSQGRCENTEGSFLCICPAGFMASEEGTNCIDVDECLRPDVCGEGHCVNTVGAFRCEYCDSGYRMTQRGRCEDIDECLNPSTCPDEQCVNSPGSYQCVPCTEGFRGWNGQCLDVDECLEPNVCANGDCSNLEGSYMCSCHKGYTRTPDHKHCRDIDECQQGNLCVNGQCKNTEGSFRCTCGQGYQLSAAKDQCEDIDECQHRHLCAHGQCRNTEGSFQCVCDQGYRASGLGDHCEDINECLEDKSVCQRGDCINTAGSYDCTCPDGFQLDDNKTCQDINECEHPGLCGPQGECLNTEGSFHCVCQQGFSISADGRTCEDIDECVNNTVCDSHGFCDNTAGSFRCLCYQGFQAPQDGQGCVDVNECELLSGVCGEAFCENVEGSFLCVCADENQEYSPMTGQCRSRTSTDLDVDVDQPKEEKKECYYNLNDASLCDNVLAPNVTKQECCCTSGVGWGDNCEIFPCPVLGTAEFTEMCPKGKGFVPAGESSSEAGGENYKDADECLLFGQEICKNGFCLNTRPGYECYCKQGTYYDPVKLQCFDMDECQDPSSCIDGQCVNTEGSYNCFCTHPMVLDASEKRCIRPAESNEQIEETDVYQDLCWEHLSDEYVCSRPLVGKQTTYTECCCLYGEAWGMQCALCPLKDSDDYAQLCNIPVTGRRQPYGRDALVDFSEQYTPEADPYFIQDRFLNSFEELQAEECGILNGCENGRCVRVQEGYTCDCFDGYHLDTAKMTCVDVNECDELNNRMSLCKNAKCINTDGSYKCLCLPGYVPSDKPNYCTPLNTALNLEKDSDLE
T1 sequence (P01137 30-390 limits assumed, chain 2 of 2): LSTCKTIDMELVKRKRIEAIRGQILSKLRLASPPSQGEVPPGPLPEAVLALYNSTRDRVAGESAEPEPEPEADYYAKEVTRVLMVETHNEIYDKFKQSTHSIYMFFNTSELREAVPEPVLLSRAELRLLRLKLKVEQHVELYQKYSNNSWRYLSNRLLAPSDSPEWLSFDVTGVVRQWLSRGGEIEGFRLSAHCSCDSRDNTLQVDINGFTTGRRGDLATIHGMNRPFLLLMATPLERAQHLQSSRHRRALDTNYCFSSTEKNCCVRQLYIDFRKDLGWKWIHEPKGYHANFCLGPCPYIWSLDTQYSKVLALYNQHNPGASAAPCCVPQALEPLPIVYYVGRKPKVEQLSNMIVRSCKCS
Briefly: SPR Biacore 8K, Fab over captured antigen. As to the method:
A Biacore 8K system was employed to determine the monovalent binding affinity and the kinetic parameters for antigen binding of test antibodies. Association and dissociation kinetics of Fab fragments SR-AB42-HuFab, SR-AB63-HuFab and SR-AB43-HuFab to antigen complexes were measured, and resulting ka, kd and KD are provided below. Briefly, the binding kinetics were evaluated by surface plasmon resonance using Biacore 8K (GE Healthcare). Biotinylated capture antigens were immobilized to the chip (10 nM, ˜200 RU loading). A Biotin CAPture sensor chip was used to capture the biotinylated antigens. […] 0 nM was used as a reference. […] 0 nM was used as a reference. Multi-cycle kinetics was employed where each analyte concentration was injected in a separate cycle and the sensor chip surface was regenerated after each cycle. A11 the assays were carried out in freshly prepared 1× HBS-EP+ buffer (10 mM HEPES, 150 mM NaCl, 3 mM EDTA, 0.05% Tween20, pH 7.4). Data were fit globally to a 1:1 binding model to obtain the kinetic parameters. The sensorgram for 0 nM analyte concentration was used as reference.
(In SPR one partner is held on a chip, and binding of the other changes the refractive index at the surface.)
As a reminder, the Kd is the constant that tells how readily two partners part at equilibrium. A higher Kd goes with weaker binding. A word on the koff: it is the first-order rate constant of dissociation. A low value points to slow dissociation. For orientation: kon means a measure of how fast the partners come together. Low readings indicate slow association, high ones fast association. B1 came in with a Kd of 0.0444 nM, a koff of 0.00011 s⁻¹ and a kon of 2.47e+06 M⁻¹ s⁻¹.

In turn, B2 showed a Kd of 0.0593 nM, a koff of 0.000104 s⁻¹ and a kon of 1.76e+06 M⁻¹ s⁻¹.

In turn, B3 registered a Kd of 0.0707 nM, a koff of 0.000128 s⁻¹ and a kon of 1.82e+06 M⁻¹ s⁻¹.

B4 gave a Kd of 0.0396 nM, a koff of 9.91e-05 s⁻¹ and a kon of 2.5e+06 M⁻¹ s⁻¹.

As for B5, binding was characterised by a dissociation constant (Kd) of 0.051 nM, the koff was found to be 0.00012 s⁻¹ and the kon is 2.35e+06 M⁻¹ s⁻¹.

With B6, the Kd amounted to 0.0589 nM, the koff came to 0.00015 s⁻¹ and the kon turned out to be 2.55e+06 M⁻¹ s⁻¹.

As to B7, the Kd was determined as 0.0509 nM, the koff was determined as 0.00013 s⁻¹ and the kon stood at 2.55e+06 M⁻¹ s⁻¹.

Turning to B8, binding was characterised by a dissociation constant (Kd) of 0.131 nM, the koff came to 0.000113 s⁻¹ and the kon was 862000 M⁻¹ s⁻¹.

In turn, B9 came in with a Kd of 0.133 nM, a koff of 0.000181 s⁻¹ and a kon of 1.35e+06 M⁻¹ s⁻¹.

In the case of B10, the Kd was 0.0491 nM, the koff was 8.83e-05 s⁻¹ and the kon amounted to 1.8e+06 M⁻¹ s⁻¹.

Consider B11, for which the Kd amounted to 0.0521 nM, the koff worked out at 0.000162 s⁻¹ and the kon is 3.11e+06 M⁻¹ s⁻¹.

Take B12: the Kd was found to be 0.0489 nM, the koff was 0.000126 s⁻¹ and the kon turned out to be 2.58e+06 M⁻¹ s⁻¹.

With B13, the Kd was 0.132 nM, the koff turned out to be 0.000155 s⁻¹ and the kon was 1.17e+06 M⁻¹ s⁻¹.

In the case of B14, binding was characterised by a dissociation constant (Kd) of 0.055 nM, the dissociation rate constant (koff) is 0.000182 s⁻¹ and the kon was determined as 3.31e+06 M⁻¹ s⁻¹.
